Experimental data taken from patent US11732029B2, “Methods and compositions for the treatment of wounds” (The University of Chicago, priority 2017, dated 2023).

Columns and labels:
[1] = target: T1, PlGF-1 (Homo sapiens, UniProt P49763); test: Recombinant GF binding to the vWF recombinant protein and A1 HBD peptide (ELISA); parameters: All growth factors (GFs) and chemokines were purchased in their mature forms; purchased PeproTech; host or cells: Escherichia coli; conditions: plate coated with vWF protein, A1 domain or HBD peptide, 1 μg/mL GF
T1 sequence (P49763 19-149 isoform P49763-2 limits assumed): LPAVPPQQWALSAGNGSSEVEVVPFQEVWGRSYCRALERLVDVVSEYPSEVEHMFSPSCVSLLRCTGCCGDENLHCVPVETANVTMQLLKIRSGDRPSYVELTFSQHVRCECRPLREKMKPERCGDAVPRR
Protocol: (§1) ELISA tests were performed as described above. In brief, ELISA plates were coated with 1 μg/mL of FL-vWF (WT or R1341Q), 1 μg/mL of vWF A1 recombinant protein (U-Protein Express) or 1 μg/mL of vWF A1 HBD peptide (sequence […], (SEQ ID NO:50) chemically synthesized by Genscript) at 37° C. overnight. After blocking with 2% BSA solution containing PBS-T, 1 μg/mL of the recombinant human proteins VEGF-A121, VEGF-A165, PlGF-1, PlGF-2, PDGF-BB, FGF-2, CXCL-12α and CXCL-12γ were added. 1 μg/mL of BSA served as non-binding protein control. Bound GF or chemokine was detected with biotinylated antibodies for human VEGF-A, PlGF, PDGF-BB, FGF-2, or CXCL-12 (R & D Systems). The antibodies were detected by streptavidin-HRP (R & D Systems). Color development and the absorbance measurement were done as described above.

[2] = target: T2, FGF-2 (Homo sapiens, UniProt P09038); test: as above; parameters: All growth factors (GFs) and chemokines were purchased in their mature forms; purchased PeproTech; host or cells: Escherichia coli; conditions: plate coated with vWF protein, A1 domain or HBD peptide, 1 μg/mL GF
T2 sequence (P09038 143-288): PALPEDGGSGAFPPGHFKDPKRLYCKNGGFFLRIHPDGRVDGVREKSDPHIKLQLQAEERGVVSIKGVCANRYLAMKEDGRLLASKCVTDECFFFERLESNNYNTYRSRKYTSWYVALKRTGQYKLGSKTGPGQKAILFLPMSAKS
Protocol: as §1

[3] = target: T3, VEGF-A121 (Homo sapiens, UniProt P15692); test: as above; parameters: All growth factors (GFs) and chemokines were purchased in their mature forms; purchased PeproTech; host or cells: Escherichia coli; conditions: plate coated with vWF protein, A1 domain or HBD peptide, 1 μg/mL GF
T3 sequence (P15692 27-147 isoform P15692-9 limits assumed): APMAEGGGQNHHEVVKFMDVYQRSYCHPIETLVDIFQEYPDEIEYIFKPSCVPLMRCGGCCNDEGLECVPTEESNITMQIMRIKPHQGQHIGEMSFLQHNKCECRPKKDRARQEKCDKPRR
Protocol: as §1

[4] = target: T4, PlGF-2 (Homo sapiens, UniProt P49763); test: as above; parameters: All growth factors (GFs) and chemokines were purchased in their mature forms; purchased PeproTech; host or cells: Escherichia coli; conditions: plate coated with vWF protein, A1 domain or HBD peptide, 1 μg/mL GF
T4 sequence (P49763 19-170 isoform P49763-3 limits assumed): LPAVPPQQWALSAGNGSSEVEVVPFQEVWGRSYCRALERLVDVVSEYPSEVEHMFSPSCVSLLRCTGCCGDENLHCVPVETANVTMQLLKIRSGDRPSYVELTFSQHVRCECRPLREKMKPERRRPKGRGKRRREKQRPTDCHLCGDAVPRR
Protocol: as §1

[5] = target: T2, FGF-2; test: vWF binding to recombinant GFs (ELISA); parameters: All GFs and chemokines were purchased in their mature forms; purchased PeproTech; host or cells: Escherichia coli; conditions: VEGF-A121 signal as baseline
Protocol: (§2) ELISA tests were performed as previously reported1. In brief, ELISA plates (med-binding, Greiner Bio-One) were coated with 50 nM GFs at 37° C. for 2 hrs. After blocking with 2% BSA solution containing PBS-T, 1 μg/mL of plasma-derived vWF (EMD Millipore) was added. Bound vWF was detected with 1 μg/mL of rabbit anti-human vWF antibody (Sino Biological). Then, HRP conjugated goat anti-rabbit antibody (Jackson ImmunoResearch) was added. After 60 min of incubation, 50 μL TMB substrate (Sigma-Aldrich) was added. The reaction was stopped by adding 25 μL of 2N H2SO4. Subsequently, the absorbance at 450 nm was measured and subtracted the absorbance at 570 nm.

[6] = target: T3, VEGF-A121; test: vWF binding to recombinant GFs (ELISA); parameters: All GFs and chemokines were purchased in their mature forms; purchased PeproTech; host or cells: Escherichia coli; conditions: non-binding reference
Protocol: as §2

[7] = target: T5, BMP-2 (Homo sapiens, UniProt P12643); test: vWF binding to recombinant GFs (ELISA); parameters: All GFs and chemokines were purchased in their mature forms; purchased PeproTech; host or cells: Escherichia coli; conditions: VEGF-A121 signal as baseline
T5 sequence (P12643 283-396): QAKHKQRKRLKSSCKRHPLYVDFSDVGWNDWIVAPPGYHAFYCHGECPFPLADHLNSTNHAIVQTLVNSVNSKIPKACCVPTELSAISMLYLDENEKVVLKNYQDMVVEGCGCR
Protocol: as §2

[8] = target: T4, PlGF-2; test: vWF binding to recombinant GFs (ELISA); parameters: All GFs and chemokines were purchased in their mature forms; purchased PeproTech; host or cells: Escherichia coli; conditions: VEGF-A121 signal as baseline
Protocol: as §2

Substance | binding to PlGF-1 [1] | binding to FGF-2 [2] | binding to VEGF-A121 [3] | binding to PlGF-2 [4] | vWF binding to FGF-2 [5] | vWF binding to VEGF-A121 [6] | vWF binding to BMP-2 [7] | vWF binding to PlGF-2 [8]
YIGLKDRKRPSELRRIASQVKYAC [vWF HBD] | neither VEGF-A121 nor PlGF-1 were able to bind | showed binding | neither VEGF-A121 nor PlGF-1 were able to bind | showed binding |  |  |  | 
vWF: human plasma-derived von Willebrand factor (EMD Millipore) |  |  |  |  | bound | not | strong binding | bound
